This is an account of results in PMC5756609.

This test concerns the target FcγR (on DIV 7 primary rat hippocampal cells, Erk phosphorylation assay).

Regarding “IgG immune complex (IgG-IC): pre-complexed mouse IgG and rat anti-mouse IgG, 1:1 ratio (w/w)”, the ratio of pErk to Erk (western blot, percentage of vehicle controls) in DIV 7 hippocampal cell cultures exposed for 30 min to IgG-IC at 10 or 100 μg/ml; increased at 10 μg/ml but not at 100 μg/ml was found to be 60.4.
